Results on one substance are retold here after patent US20020173477A1.

The test addresses human Cε-containing IgE in serum of Hu-IgE transgenic mice (human Cε region and the H chain V region of the murine Mab BAT123) (human) (UniProt P01854). Briefly: cell-based or functional assay.

In turn, “Hu-901 (mCγ2a,κ), intact anti-IgE antibody with humanized variable regions and murine constant regions (from UniProt P01863 1-330)” showed an IgE suppression in Hu-IgE transgenic mice infected with Ad-Hu-901 (mCγ2a,κ), day 4 post infection (free IgE ELISA) of 40 to 90%.
